Legend:
Assay in all cases: cell-based or functional assay
[1] = target: SARS-CoV-2 spike (S) protein of the variant printed 'BA.1' in column 9 of Table 32 (SARS-CoV-2)
[2] = target: synthetic SARS-CoV-2 spike 'BA.4 + all' (SARS-CoV-2 (synthetic variant))
[3] = target: SARS-CoV-2 Omicron BA.1 spike (S) protein (SARS-CoV-2)
[4] = target: SARS-CoV-2 Omicron BA.3 spike (S) protein (SARS-CoV-2)
[5] = target: SARS-CoV-2 Omicron BA.2 spike (S) protein (SARS-CoV-2)

Omi-32 (antibody), sequence (VH): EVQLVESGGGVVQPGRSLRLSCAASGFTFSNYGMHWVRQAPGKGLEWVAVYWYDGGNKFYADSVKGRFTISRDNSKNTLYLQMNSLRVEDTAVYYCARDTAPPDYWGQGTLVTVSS
Omi-32 (antibody), sequence (VL): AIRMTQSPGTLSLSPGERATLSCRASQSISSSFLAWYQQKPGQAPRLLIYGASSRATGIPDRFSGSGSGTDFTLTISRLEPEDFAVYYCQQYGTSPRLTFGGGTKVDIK
Omi-12 (antibody), sequence (VH): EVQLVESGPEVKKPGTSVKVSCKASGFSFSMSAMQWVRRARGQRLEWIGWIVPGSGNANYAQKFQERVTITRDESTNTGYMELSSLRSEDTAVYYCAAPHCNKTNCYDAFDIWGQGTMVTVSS
Omi-12 (antibody), sequence (VL): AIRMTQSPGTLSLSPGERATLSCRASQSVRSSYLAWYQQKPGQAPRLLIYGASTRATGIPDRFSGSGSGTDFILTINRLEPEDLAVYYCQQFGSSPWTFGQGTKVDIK
AZD8895 (antibody), sequence (VH): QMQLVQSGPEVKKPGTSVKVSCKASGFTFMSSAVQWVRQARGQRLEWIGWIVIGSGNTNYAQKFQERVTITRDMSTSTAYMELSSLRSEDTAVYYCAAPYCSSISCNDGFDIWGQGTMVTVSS
AZD8895 (antibody), sequence (VL): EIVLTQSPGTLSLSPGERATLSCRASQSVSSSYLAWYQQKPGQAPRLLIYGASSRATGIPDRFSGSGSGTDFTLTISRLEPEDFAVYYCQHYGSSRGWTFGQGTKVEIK
Omi-42 (antibody), sequence (VH): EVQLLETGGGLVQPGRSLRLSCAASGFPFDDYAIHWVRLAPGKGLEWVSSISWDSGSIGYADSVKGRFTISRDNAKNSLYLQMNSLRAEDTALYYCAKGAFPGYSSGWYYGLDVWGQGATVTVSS
Omi-42 (antibody), sequence (VL): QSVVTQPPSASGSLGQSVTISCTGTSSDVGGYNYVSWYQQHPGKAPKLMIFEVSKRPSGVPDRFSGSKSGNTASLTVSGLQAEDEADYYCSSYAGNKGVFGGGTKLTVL
Omi-18 (antibody), sequence (VH): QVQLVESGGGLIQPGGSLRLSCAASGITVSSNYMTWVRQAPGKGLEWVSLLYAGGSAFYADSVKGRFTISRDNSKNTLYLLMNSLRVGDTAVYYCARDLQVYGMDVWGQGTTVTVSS
Omi-18 (antibody), sequence (VL): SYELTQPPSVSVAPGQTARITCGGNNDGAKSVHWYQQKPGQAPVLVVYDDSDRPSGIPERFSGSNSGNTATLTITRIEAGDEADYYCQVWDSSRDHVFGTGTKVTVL
Omi-29 (antibody), sequence (VH): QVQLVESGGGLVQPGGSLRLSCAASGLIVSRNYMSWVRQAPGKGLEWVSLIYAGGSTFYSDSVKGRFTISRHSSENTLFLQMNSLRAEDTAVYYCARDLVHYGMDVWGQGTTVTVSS
Omi-29 (antibody), sequence (VL): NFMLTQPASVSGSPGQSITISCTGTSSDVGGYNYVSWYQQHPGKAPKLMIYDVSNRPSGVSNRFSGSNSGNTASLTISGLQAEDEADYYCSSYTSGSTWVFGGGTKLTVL

## Omi-29 (antibody)
[1]
  IC50 (pseudovirus neutralization): 0.025 µg/mL
[2]
  IC50 (pseudovirus neutralization): > 10 µg/mL

## Omi-03 (antibody)
[1]
  IC50 (pseudovirus neutralization): 0.014 µg/mL
[2]
  IC50 (pseudovirus neutralization): 0.432 µg/mL

## AZD8895 (antibody)
[1]
  IC50 (pseudovirus neutralization): 5.11 µg/mL
[2]
  IC50 (pseudovirus neutralization): > 10 µg/mL

## AZD1061 (antibody)
[1]
  IC50 (pseudovirus neutralization): > 10 µg/mL
[2]
  IC50 (pseudovirus neutralization): > 10 µg/mL

## Ly-CoV1404 (antibody)
[1]
  IC50 (pseudovirus neutralization): > 10 µg/mL
[2]
  IC50 (pseudovirus neutralization): > 10 µg/mL

## ADG20 (antibody)
[1]
  IC50 (pseudovirus neutralization): > 10 µg/mL
[2]
  IC50 (pseudovirus neutralization): > 10 µg/mL

## Ly-CoV16 (antibody)
[1]
  IC50 (pseudovirus neutralization): > 10 µg/mL
[2]
  IC50 (pseudovirus neutralization): > 10 µg/mL

## Omi-18 (antibody)
[1]
  IC50 (pseudovirus neutralization): 0.005 µg/mL
[2]
  IC50 (pseudovirus neutralization): 3.61 µg/mL

## Omi-12 (antibody)
[1]
  IC50 (pseudovirus neutralization): 0.004 µg/mL
[2]
  IC50 (pseudovirus neutralization): > 10 µg/mL

## AZD7442
[3]
  IC50, pseudoviral neutralization: 0.232 µg/mL
[4]
  IC50, pseudoviral neutralization: 0.065 µg/mL
[1]
  IC50 (pseudovirus neutralization): 2.73 µg/mL
[2]
  IC50 (pseudovirus neutralization): > 10 µg/mL
[5]
  IC50, pseudoviral neutralization: 0.008 µg/mL

## REGN10987 (antibody)
[1]
  IC50 (pseudovirus neutralization): > 10 µg/mL
[2]
  IC50 (pseudovirus neutralization): > 10 µg/mL

## S309 (antibody)
[1]
  IC50 (pseudovirus neutralization): 0.436 µg/mL
[2]
  IC50 (pseudovirus neutralization): 0.582 µg/mL

## Ly-CoV555 (antibody)
[1]
  IC50 (pseudovirus neutralization): > 10 µg/mL
[2]
  IC50 (pseudovirus neutralization): > 10 µg/mL

## Omi-42 (antibody)
[1]
  IC50 (pseudovirus neutralization): 0.01 µg/mL
[2]
  IC50 (pseudovirus neutralization): 0.008 µg/mL

## Omi-32 (antibody)
[1]
  IC50 (pseudovirus neutralization): > 10 µg/mL
[2]
  IC50 (pseudovirus neutralization): > 10 µg/mL

## REGN10933 (antibody)
[1]
  IC50 (pseudovirus neutralization): > 10 µg/mL
[2]
  IC50 (pseudovirus neutralization): > 10 µg/mL
